Source: patent US20240423474A1, “SYSTEM AND METHOD FOR INTRAOPERATIVE LIFETIME IMAGING” (The General Hospital Corporation, priority 2021, published 2024)

What was measured:
[1] = Widefield FLT of probes in culture media and stock solution in PBS; assay type: physicochemical
Source text: In accordance with one particular and non-limiting study, for widefield time-domain imaging, a system akin that of FIG. 1 was used that included a Supercontinuum laser and tunable filter (EXR-20, SuperK Varia, NKT Photonics, 80 MHz repetition rate; 400-850 nm tuning range) providing 770±30 nm excitation, a multimode fiber (Thorlabs, Newton, New Jersey, United States) delivering light to the sample, and a gated intensified CCD (LaVision, Picostar, 500 V gain, 0.1 to 1 second integration time, 150 ps steps, 256×344 pixels after 4×4 hardware binning). A digital micromirror device was used to expand the output of the optical fiber and delivered to the surface of the animal. The average total power across the illumination area (approximately 6×8-cm) was 10 to 20 mW. Fluorescence was collected in reflectance mode using an 835/70-nm band-pass filter. TD fluorescence imaging was performed with a gate width of 600 ps and 150 ps steps for a total duration of approximately 6 ns per laser duty cycle of 12.5 ns. […] Animals were sacrificed after imaging and tumors were immediately frozen in optimal cutting temperature (OCT) compound for fluorescence lifetime imaging microscopy (FLIM), histology and immunohistochemical (IHC) staining.
For the widefield TD data analysis, TD fluorescence images were analyzed in MATLAB (MathWorks, Natick, Massachusetts, United States) using a custom software. […]

[2] = several recent clinical trials; cited from earlier work
FaDu cells = assay: Confocal FLIM of FaDu cells incubated with imaging probes; assay type: cell-based; conditions: 100 μg probe, 2 hours incubation
Description: Also, a […] 8 FALCON (Leica, Germany) FLIM system was used for NIR FLIM of 10-μm thin tissue sections (murine tumors and clinical specimens). Imaging was performed using 730 nm excitation with 750 nm notch filter and detected with a HyD R detector operating within 770-850 nm range. A 10×, 0.4 NA objective was used for image collection and digital images with 512×512 pixels (2.275 μm/pixel), 4 line repetitions and 4 line averages were obtained. TD data was collected using time-correlated single photon counting.
For in vitro experiments, FaDu cells were plated at 0.2×10^6 cells per well in a 12-well plate containing poly-D-lysine coated glass coverslips and were allowed to adhere to the coverslips for 24 hours. […] After probe incubation, cells were fixed in 4% para-formaldehyde (PFA) and mounted with ProLong Gold Antifade medium (ThermoFisher Scientific, Waltham, Massachusetts, United States) for confocal FLIM.
For the FLIM and IHC image analysis, the FALCON/FLIM software was used to collect and analyze the FLIM data. Lifetime values at each pixel location was calculated by using a single exponential fitting of the fluorescence decay curves. […] IHC image ROIs were analyzed by color deconvolution using the IHC Tool Box in ImageJ (NIH, Version 1.48u) to extract EGFR positive pixels within each ROI. […] Corresponding FLIM image ROIs were analyzed by averaging FLT values above 0.3 ns. […]

## panitumumab-IRDye800CW: conjugate of the FDA approved therapeutic antibody for the epidermal growth factor receptor (EGFR), panitumumab, with IRdye800CW, an NIR dye
[1]; culture media collected after incubation with cancer cells
  FLT in culture media: 0.58 ns
[1]; stock solution in PBS
  FLT of stock solution in PBS: 0.58 ns
[2]
  safety in humans: safe for human use
FaDu cells
  probe uptake in cells: higher probe uptake
